Experiment: yeast display, Sf9 membrane polyspecificity reagent, FACS + sequencing; frameworks hold sequencing errors
Method in brief: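 Genes from sorted yeast were amplified by colony PCR, read by MiSeq 2 × 250 sequencing and filtered on CDR length. These cells carried a synthetic nanobody library in Saccharomyces cerevisiae BJ5465 and were sorted by FACS into low and high (top ~1%) gates on anti-HA and streptavidin fluorescence. Polyreactivity is labelled according to the gate of origin.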

Row | Sequence | polyreactivity (PSR sort gate)
1 | QVQLVESGGGLVQAGGSLRLSCAASGSIFYVYAMGRYRQAPGKERELVASITRRRTNYADSVKVRFTISRDNAKNTVYLQMNSLKPEDTAVYYCAATTYVRQYATYDYWGQGTQVTVSS | high polyreactivity
2 | QVQLVESGGGLVQAGGSLRLSCAASGSIFYRNAMGWYRQAPGKERELVAAISASGGSTYYADSVKGRFTISRDNAKITVYLQMNSLKPEDTAVYYCAVEYRKSRSYAPMGYWGQGTQVTVSS | high polyreactivity
3 | QVQLQESGDGLVQAVGSLRLSCAASGYISGYYNMGWYRQAPGKERELVAGIDAFGSSTNYADCVKGRFTISRDNAKNTVYLEMNSLKPEDTAVYYFAARPYGDRLFSYWGQGTQVTVSS | low polyreactivity
4 | QDQRVDSGGGLVQAGGSLRLSCAASGSNFQWNAMGSYRHATGKERELVAAISGTGGNTYYADSVKGRFTISRDNAKNTVYLQMNSLKREDTAVYYCNTDYGEYYSWYLQWWYIPFDYWGQGTQVTVSS | low polyreactivity
5 | QVQLVESGGGLVQAGGSLRLSCAASGITFSRNAMGWYRQAPGNERELVATITSGCSTNYADSVKGRFTISRDNAKNNVYLQMNSLKPEDTAIYYCNAVWNTFISGRSYDYWGQGTQVTVSS | low polyreactivity
6 | QVQLVESGGGLVQAGGSLRLSCAASGYIFWYNAMGWYRQAPGKERELVAAISRSGGRTYYADSVKGRCTISRDNAKNTVYLQMNSLKPDDTAVYYCAAGSSHHYVYEGGYWGQGTQVTVSS | low polyreactivity
7 | QVQLVESGGGLVQAGGSLRLSCAASGYIFGWNAMGWYRQAPGKERELVASIRWGGGSTYYADSVKGRFTISRDNAKNTVYLQMNSLKPEDTAVYYCAAKRRYYGPWSRIGYDYWGQGTQVTVSS | low polyreactivity
8 | QGQLVESGGGLVQAGGSLRLSCAASGSTFTRYGMGWYRQAPGKERELVAAITTSGSSTYYADSVKGRFTISRDNAKNTVYLQMNSLKPEDTAVYYCAADWSSWGFDYWGQGTQVTVSS | low polyreactivity
9 | QVQLVESGGGLVQAGGSLRLSCAASGFTIYRYALGGYRPAPGKERELVAAISKSGVSTYYADSVKGRFTISRDNAKNTVYLLMNSLKPEDTAVYYCAVSLTYRWISFDYWGQGTQVTVSS | high polyreactivity
10 | QVQLVESGGGLVQAGGSLRLSCAASGIIFYHYPMGWYRQAPGKERELVAAITGSGIRTYYADSVKGRFTISRDNAMNTVYLQMNSLKPEDTAVYYCGAQQRYWSTYGYWGQGTQVTVSS | high polyreactivity
11 | QVQLVESGRGLVQAGGSLRLSCAASGSTLATYTMGWYRQAPGKERELVPAISFGGSTYYADSVKGRFTISRDNAKNTVYLQMNSLKPEDTAVYYCAVYGDSYWGAYYYSDGYWGQGTQVTVSS | low polyreactivity
12 | QVQLVESGGGLVQAGGSLRLSCAASGLTFYYYAMGWYRQAPGKERELVAAISGTGGSAYYADSVKGRFTISRDNAKNTVYLQMNSLKPEDTAVYYCAARYLRYKGTGATSAYDYWGQGTQVTVSS | high polyreactivity
13 | QVQLLESGGGIVQAGGSLRLSCAASGSIFRYYAMGWYRQAPGKEREFVASITYRGGRTYYADSVKGRFTISRDNAKNTVYLQMNSLKPEDTAVYYCAARTRAGAWTSKYHDYWGQGTQVTVSS | high polyreactivity
14 | QVQLVESGGGLVQAGGSLRLSCAASGFIFYLYTMGWYRQAPGKERELVAAITGGGGTYYADSVKGRFTISRDNAKNTVYLQMNSLKPEDTAVYYCAAEYYLYLWDEYDYWGQGTQVTVSS | high polyreactivity
15 | QVQLVESGGGLVQAGGSLRLSCAAYYAMGWYRQAPVKERELVAAISSTGRTNYADSVKGRFTISRDNAKNTVYLQMNSLKPEDTAVYYCAAEWHYIYAYDYWGQGTQVTVSS | low polyreactivity
16 | QVQLVESGGGLVQAGGSLRLSCAASGRIFSRNAMGWYRQAPGKERELVAAISRRGGSTSYADSVKGRFTISRDNAMNTVYLQMNSLKPEDTAVYYCAAEDEYYCTRGYWYSRYDYWGQGTQVTVSS | high polyreactivity

Row | Sequence | polyreactivity (PSR sort gate)
17 | QVQLVESGGGLVQAGGSLRLSCAASGRTFANYAMGWYRQAPGKERELVAAISWSGGSTYYADSVKGRFTISRDNAKNSVYLQMNSLKPEDTAVYYCAALAGRAYGYGYWGQGTQVTVSS | high polyreactivity
18 | QVQLVESGGGLVKAGGSLRLSCAASGITFSYYTMGWYRQAPGKEREFVATISQSSGSTYYADSVKGRFTISRDNAKNTVYLQMNSLKPEDTAVYYCNARRDYEWESWNVDDDYWGQGTQVTVSS | high polyreactivity
19 | QVQLVESGGGLVQAGGSLRLSCAASGFTLLKYAMGWYIQAPGKERELVAAITRRGGRTSYADSVKGRFTISRDNAKNTVYLQMNSLKPEDTAVYYCNADGDTGRFDYWGQGTQVTVSS | high polyreactivity
20 | QVQLVESGGGLDQAGGSLLLSCAASGSIFNDYAMGWYRQAPGKERELVAAISTSDGSTYYADSVKGRFTISRDNAKNTVYLQMKSLKPEDTAVYYCAVVSDYYYYPPYGYWGQGTQVTVSS | low polyreactivity
21 | QVQLVESGGGLVQAGGSHRLSCADSGSIFWYNAMGWYRQAPGKEREFVATITWSGDSTYYADSVKGRFTISRDNAKNTVYLQMNSLKPEDTAVYYCAALLDYSVADLYSHHVSRYYYWGQGTQVTVSS | low polyreactivity
22 | QVQLVESGGGLVQAGGSLRLSCAPSGIIFSPNAMGLYRQAPGKERELVASISSDSSTNYADSVKGRFSISRDNAKNTVYLQMNSLKPEYTAVYYCAADFVVGQAGDWTFWFDYWGQGTQVTVSS | low polyreactivity
23 | QVQLVESGGGLVQAGGSLRLSCADSGFNFKYYAMGWYRQAPGKERELVATITSRGGSTYYADSVKGRFTISRDNAKNTVYLQMNSLKPEATAVYYCNARSSSPGKYGYWGQGTQVTVSS | high polyreactivity
24 | QVQLVESGGGLVQAGGSLRLSCAASGSTFSSYAMGRYRQAPGKERELVAVITRGTSTNYADSVKGRFTISRDNAKNTVYLQMNSLKPEDTAVYYCNARRGSRRFGYWGQGTQVNVSS | high polyreactivity
25 | QVQLVESGGGLVQAGGSLRLSCAASGNIFVPNAMGWYRQAPGKERGLVAAIRRGGSTNYADSVKGRFTISRDNAKNNVYLQMNSLKPEDTGVYYCARSRVSFTDLEGYYWGQGTQVTVSS | low polyreactivity
26 | QVQLVESGGGLVQAGGSLRLSCAASGSTFYVNAMGWYRQAPGKERELVAAIRSSAGNTTYADSVKGRFTISRDNAKNTVYLQMNSLKPEDTAVYYCAAETFYDYGGYDYWGQGTQVTVSS | low polyreactivity
27 | QVQLVESGGGLVQAGGSLRLSCAASGFIFFAYAMGWYRQAPGKERELVAAISRTGGSTYYADSVKGRFTISRDNAKNTVYLEMNSLKPEDTAVYYCAAVVSRTYQWWTYDYWGQGTQVTVSS | high polyreactivity
28 | QVQLVESGGGLVQAGGSLRLSCAASGFIFETNAMGWYRQAPGKERELVAAISSRGGSTYYADSVKGRFTISRDNAKNTVYLQMNSLKPEDTAVYYCAAKLVVSYGQEYDYWGQGTHVTVSS | low polyreactivity
29 | QVQLVESGGGLVQAGGSLRLSCAASGFIFRGNAMGWYRQAPGKERELVAAISKSGGRTYYADSVKGRFTISRDNAKNTVYLQMNSLKPEDTAVYYCNVLRLGLGRESDSWGQGTQVTVSS | high polyreactivity
30 | QVQRVESGGGLVQAGGRLRLICAAAGYTFDYYAMGWYRQAPGKERELVAAISRSGTRTYYADSVKGRFTISRDNAKNTVYLQMYSLKPEVNAVYYLKKAYYLYAGDYWGQGTQVTVSS | high polyreactivity
31 | QVQLVESGGGLVQAGGSLRLSCAASGSTFVGNAMGWYRQAPGKERELVAAITGGGGSTNYADSVKGRFTISRDNAKNTVYLQMNSLKPEDTAVYYCAVEVYYTGFYYSPYAYDYWGQGTQVTVSS | low polyreactivity

— the nanobody polyreactivity screen of Harvey et al. (2022)
